Legend:
[1] = molecular target: BiP NBD (human BiP nucleotide binding domain, aa 26-405, from 6His-Smt3-BiP NBD) (human) (UniProt P11021); assay: MST
[2] = molecular target: BiP NBD (human BiP nucleotide binding domain, aa 26-405, from 6His-Smt3-BiP NBD) (human) (UniProt P11021); assay: SPR

Chain of UniProt P11021 (P11021 26-405): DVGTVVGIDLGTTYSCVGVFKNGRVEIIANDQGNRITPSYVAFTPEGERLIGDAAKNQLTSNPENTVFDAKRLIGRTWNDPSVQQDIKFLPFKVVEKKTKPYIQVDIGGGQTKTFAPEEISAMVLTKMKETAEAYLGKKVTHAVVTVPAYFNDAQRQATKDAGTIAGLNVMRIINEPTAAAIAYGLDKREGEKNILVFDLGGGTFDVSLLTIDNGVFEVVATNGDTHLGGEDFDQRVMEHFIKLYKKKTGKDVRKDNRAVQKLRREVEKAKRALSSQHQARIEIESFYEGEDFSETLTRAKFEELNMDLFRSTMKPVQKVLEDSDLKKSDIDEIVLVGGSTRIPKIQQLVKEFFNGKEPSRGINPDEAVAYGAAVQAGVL

Row | Kd [1] [µM] | Kd [2] [µM] | Substance
1 | > 10 | – | CDNF A134Q purified from CHO cells (natural protein)
2 | > 10 | – | CDNF V118Y-E137A double mutant purified from CHO cells (natural protein)
3 | – | 23.4 | FL-CDNF (aa 1-161) purified from E. coli (natural protein)

Source: doi:10.1101/2025.07.08.663636
